Sequences and labels used below:
B2: recombinant His-DPPA4 protein (natural protein, human, UniProt Q7L190 1-304, looked up)
chain: MLRGSASSTSMEKAKGKEWTSTEKSREEDQQASNQPNSIALPGTSAKRTKEKMSIKGSKVLCPKKKAEHTDNPRPQKKIPIPPLPSKLPPVNLIHRDILRAWCQQLKLSSKGQKLDAYKRLCAFAYPNQKDFPSTAKEAKIRKSLQKKLKVEKGETSLQSSETHPPEVALPPVGEPPALENSTALLEGVNTVVVTTSAPEALLASWARISARARTPEAVESPQEASGVRWCVVHGKSLPADTDGWVHLQFHAGQAWVPEKQEGRVSALFLLPASNFPPPHLEDNMLCPKCVHRNKVLIKSLQWE
notes: DPPA4, human, recombinant; The construct is named only in the EMSA legend; also called recombinant DPPA4; source: recombinant

Data set [1] concerns the target T1, developmental pluripotency-associated 2 (DPPA2) (human (endogenous in NCI-H661), UniProt Q7Z7J5 1-298).
T1 construct: DPPA2, human, endogenous in NCI-H661 non-small cell lung cancer cells; source: endogenous, NCI-H661 whole-cell lysate (IP-MS); endogenous, NCI-H661 double-cross-linked chromatin (RIME)
T1 sequence (looked up): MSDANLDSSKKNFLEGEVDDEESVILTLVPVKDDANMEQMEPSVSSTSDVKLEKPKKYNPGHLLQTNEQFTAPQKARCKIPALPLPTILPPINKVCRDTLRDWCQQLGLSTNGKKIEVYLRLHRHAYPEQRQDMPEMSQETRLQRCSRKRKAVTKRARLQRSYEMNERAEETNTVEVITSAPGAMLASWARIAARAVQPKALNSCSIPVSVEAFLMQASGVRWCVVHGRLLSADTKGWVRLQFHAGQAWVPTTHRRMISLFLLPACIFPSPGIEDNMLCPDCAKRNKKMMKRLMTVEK
In words: affinity purification with mass spectrometry; IP of endogenous DPPA2 or DPPA4 from NCI-H661 whole-cell lysates, species-matched IgG IP control, label-free quantitation, n = 4 per condition. To be noted: partners not purified.

Data set [2] deals with the molecule itself. Description: mass photometry; recombinant DPPA2 and DPPA4 in vitro, each on its own and together.
Data set [3] has as its target B2. The data set is described as above. Particulars: both partners purified.

B1: developmental pluripotency-associated 4 (DPPA4) (natural protein, human (endogenous in NCI-H661), UniProt Q7L190 1-304, looked up)
chain: MLRGSASSTSMEKAKGKEWTSTEKSREEDQQASNQPNSIALPGTSAKRTKEKMSIKGSKVLCPKKKAEHTDNPRPQKKIPIPPLPSKLPPVNLIHRDILRAWCQQLKLSSKGQKLDAYKRLCAFAYPNQKDFPSTAKEAKIRKSLQKKLKVEKGETSLQSSETHPPEVALPPVGEPPALENSTALLEGVNTVVVTTSAPEALLASWARISARARTPEAVESPQEASGVRWCVVHGKSLPADTDGWVHLQFHAGQAWVPEKQEGRVSALFLLPASNFPPPHLEDNMLCPKCVHRNKVLIKSLQWE
notes: DPPA4, human, endogenous in NCI-H661 non-small cell lung cancer cells; source: endogenous, NCI-H661 whole-cell lysate (IP-MS); endogenous, NCI-H661 double-cross-linked chromatin (RIME)
B1: the “ratio between DPPA2 and DPPA4 (iBAQ) in the DPPA2 IP” value in data set [1] is over 1.

In the case of B2, in data set [2], the binding result is recorded as “binds”.

B3: recombinant DPPA2-Myc/FLAG protein (natural protein, human, UniProt Q7Z7J5 1-298, looked up)
chain: MSDANLDSSKKNFLEGEVDDEESVILTLVPVKDDANMEQMEPSVSSTSDVKLEKPKKYNPGHLLQTNEQFTAPQKARCKIPALPLPTILPPINKVCRDTLRDWCQQLGLSTNGKKIEVYLRLHRHAYPEQRQDMPEMSQETRLQRCSRKRKAVTKRARLQRSYEMNERAEETNTVEVITSAPGAMLASWARIAARAVQPKALNSCSIPVSVEAFLMQASGVRWCVVHGRLLSADTKGWVRLQFHAGQAWVPTTHRRMISLFLLPACIFPSPGIEDNMLCPDCAKRNKKMMKRLMTVEK
notes: DPPA2, human, recombinant; The construct is named only in the EMSA legend; source: recombinant
With B3, the binding result in data set [3] and in data set [2] was “binds” throughout.
